Like-named read-outs stand apart in the source and are kept apart here. Each block holds one binder with its values, some of them ahead of it.
What was measured:
[1] = target: T1, human PD-L1 (full length, on cells) (human, UniProt Q9NZQ7 19-290); experiment: cell-based or functional assay
[2] = target: T1, human PD-L1 (full length, on cells); experiment: flow cytometry on MDA-MB-231 cells, PE anti-human IgG secondary, MFI (PE)
Experimental: (§1) Cells (3-5×10⁴ cells/well) were incubated in polystyrene 96-well round-bottom plates (Greiner bio-one, cat. no. 650101) with serial dilutions of antibodies (range 0.0001 to 10 μg/mL in 5-fold dilution steps) in 50 μL PBS/0.1% BSA/0.02% azide (staining buffer) at 4° C. for 30 min.
(§2) After washing twice in staining buffer, cells were incubated in 50 μL secondary antibody at 4° C. for 30 min. As a secondary antibody, R-Phycoerythrin (PE)-conjugated goat-anti-human IgG F(ab′)₂ (Cat. no. 109-116-098, Jackson ImmunoResearch Laboratories, Inc., West Grove, Pa.) diluted 1:500 in staining buffer, was used for all experiments. Next, cells were washed twice in staining buffer, re-suspended in 20 μL staining buffer and analyzed on an iQue screener (Intellicyt Corporation, USA). Binding curves were analyzed using non-linear regression (sigmoidal dose-response with variable slope) using GraphPad Prism V75.04 software (GraphPad Software, San Diego, Calif., USA).

[3] = target: T2, cynomolgus monkey PD-L1 (full length, on CHO cells) (cynomolgus monkey (Macaca fascicularis), UniProt G7PSE7 19-290); experiment: flow cytometry on CHO cells transfected with cynomolgus PD-L1, PE anti-human IgG secondary, MFI (PE)
T2 construct: whole, on cells; also called PDL1 Mf; cynomolgus PD-L1
Experimental: as §1, §2
(§3) Binding to CHO cells expressing cynomolgus PD-L1 was determined by flow cytometry using a method as described above.

[4] = target: T1, human PD-L1 (full length, on cells); experiment: cell-based or functional assay; remark: listed apart in the source
[5] = target: T1, human PD-L1 (full length, on cells); experiment: flow cytometry on MDA-MB-231 cells, PE anti-human IgG secondary, MFI (PE); remark: listed apart in the source
Experimental: as §1, §2

[6] = target: T2, cynomolgus monkey PD-L1 (full length, …); experiment: flow cytometry on CHO cells transfected with cynomolgus PD-L1, PE anti-human IgG secondary, MFI (PE); remark: listed apart in the source
Experimental: as §1, §2, §3

PDLoneECDHisCtag [7] = target: T3, PDLoneECDHisCtag (human, UniProt Q9NZQ7 19-238); experiment: BLI cross-block, second antibody on PDLoneECDHisCtag held by immobilised 511-LC33S; plain = non-blocking
T3 construct: Expressed in HEK-293F cells; theoretical molecular weight 29 kDa; also called recombinant human PD-L1 ECD; human PD-L1 (BLI); not shown: C-terminal His-tag; C-tag
Experimental: (§4) Antibody cross-block testing was performed using biolayer interferometry (BLI) on an Octet HTX instrument (ForteBio). Antibodies (20 μg/ml in 10 mM sodium acetate buffer pH 6.0 (ForteBio)) were immobilized on Amine-Reactive 2nd Generation (AR2G) biosensors (ForteBio) according to the instructions of the manufacturer. After a baseline (50 s) in Sample Diluent (ForteBio), biosensors containing immobilized antibodies were loaded for 500 s with PDLoneECDHisCtag (100 nM or 2.7 μg/ml), after which the association response of a second antibody (10 μg/ml) was followed for 500 s. Biosensors were regenerated by using 3 times 5 s alternating exposures to 10 mM glycine pH 2.5 and Sample Diluent. The experiment was repeated with a new set of second antibodies starting from the baseline step. Each biosensor was used 6 times. The experiment was performed at 30° C. using a shaker speed of 1000 rpm. Data was analyzed using Data Analysis Software v9.0.0.12 (ForteBio). The Y-axis was aligned to the association step and Savitzky-Golay filtering was applied. The average buffer response was subtracted from the association response of the second antibody in order to correct for the dissociation of PDLoneECDHisCtag from the immobilized antibody. The corrected association responses were plotted in a matrix format.

PDLoneECDHisCtag [8] = target: T3, PDLoneECDHisCtag; experiment: BLI cross-block, second antibody on PDLoneECDHisCtag held by immobilised 476-N101Q-LC33S; plain = non-blocking
Experimental: as §4

[9] = target: T1, human PD-L1 (full length, on cells); experiment: flow cytometry on PC3 cells, PE anti-human IgG secondary, MFI (PE)
Experimental: as §1, §2

[10] = target: T1, human PD-L1 (full length, on cells); experiment: flow cytometry on MDA-MB-231 cells, PE anti-human IgG secondary, MFI (PE); remark: listed apart in the source
Experimental: as §1, §2

PDLoneECDHisCtag [11] = target: T3, PDLoneECDHisCtag; experiment: BLI cross-block, second antibody on PDLoneECDHisCtag held by immobilised 632; bold = blocking
Experimental: as §4

[12] = target: T2, cynomolgus monkey PD-L1 (full length, …); experiment: flow cytometry on CHO cells transfected with cynomolgus PD-L1, PE anti-human IgG secondary, MFI (PE); remark: listed apart in the source
Experimental: as §1, §2, §3

PDLoneECDHisCtag [13] = target: T3, PDLoneECDHisCtag; experiment: BLI (Octet HTX); antibody on anti-human IgG Fc capture sensor, PDLoneECDHisCtag as analyte; 1:1 global fit, 200 s dissociation time
Experimental: In a first set of experiments, affinities for recombinant-expressed human PD-L1 protein were determined using Bio-layer interferometry (BLI) on an Octet HTX instrument (ForteBio). Anti-Human IgG Fc Capture (AHC) biosensors (ForteBio) were loaded for 900 s with antibodies (1 μg/ml). […] The experiment was carried out while shaking at 1000 rpm at 30° C. Data was analyzed with Data Analysis Software v9.0.0.12 (ForteBio) using the 1:1 model and a global full fit with 1000 s association time and 200 or 1000 s dissociation time. Data traces were corrected by subtraction of a buffer reference, the Y-axis was aligned to the last 10 s of the baseline, and interstep correction as well as Savitzky-Golay filtering was applied. Data traces with a response <0.05 nm were excluded from analysis. As default, the fit using 1000 s dissociation time was used.

T3 sequence (Q9NZQ7 19-238, form in doubt): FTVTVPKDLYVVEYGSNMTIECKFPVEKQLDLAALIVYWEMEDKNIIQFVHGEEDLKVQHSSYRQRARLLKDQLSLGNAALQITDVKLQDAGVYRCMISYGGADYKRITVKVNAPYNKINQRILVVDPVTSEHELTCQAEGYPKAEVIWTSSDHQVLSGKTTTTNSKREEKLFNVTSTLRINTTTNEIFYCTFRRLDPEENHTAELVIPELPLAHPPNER
T2 sequence (G7PSE7 entry or part of it): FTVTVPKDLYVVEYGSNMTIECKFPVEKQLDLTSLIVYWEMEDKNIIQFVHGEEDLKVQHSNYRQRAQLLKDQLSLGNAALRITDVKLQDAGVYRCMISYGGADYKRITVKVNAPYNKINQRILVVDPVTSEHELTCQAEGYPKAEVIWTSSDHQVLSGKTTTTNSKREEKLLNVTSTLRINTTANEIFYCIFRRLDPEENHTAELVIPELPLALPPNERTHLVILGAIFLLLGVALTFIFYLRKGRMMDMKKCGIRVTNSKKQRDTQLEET
T1 sequence (Q9NZQ7 19-290 limits assumed): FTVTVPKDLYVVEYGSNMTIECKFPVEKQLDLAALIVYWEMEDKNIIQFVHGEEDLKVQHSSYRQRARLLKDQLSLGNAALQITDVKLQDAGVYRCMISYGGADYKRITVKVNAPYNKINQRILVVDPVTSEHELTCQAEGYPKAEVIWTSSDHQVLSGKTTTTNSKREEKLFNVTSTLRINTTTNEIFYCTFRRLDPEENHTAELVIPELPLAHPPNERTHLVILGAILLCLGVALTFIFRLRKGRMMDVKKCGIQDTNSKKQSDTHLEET

EC50 (read off the curve) [1]: ~0.03 µg/mL
EC50 (read off the curve) [2]: ~0.02 µg/mL
EC50 (read off the curve) [3]: ~0.07 µg/mL
B1: IgG1-338-FEAR (antibody, V domains shown)
VH: EVQVVESGGGLVQPGGSLRLSCAASGFTFSRFWMSWVRQAPGKGLEWVANIKQDGGEKYYVDSVKGRFTISRDNAKNSLYLQMNSLRGEDTAVYYCARDDNWNGHFDYWGQGTLVTVSS
VL: DIQMTQSPSTLSASVGDRVTITCRASQSISSWLAWYQQKPGKAPNLLIYKASSLESGVPSRFSGSGSGTEFTLTISSLQPDDFATYYCQQYYGSYITFGQGTRLEIKR

EC50 (read off the curve) [4]: ~0.02 µg/mL
EC50 (read off the curve) [5]: ~0.03 µg/mL
EC50 (read off the curve) [6]: ~0.05 µg/mL
association response of the second antibody (PDLoneECDHisCtag [7]): 0.6 nm
association response of the second antibody (PDLoneECDHisCtag [8]): 0.7 nm
B2: IgG1-547-FEAR (antibody, V domains shown)
VH: EVQLLEPGGGLVQPGGSLRLSCEASGSTFSTYAMSWVRQAPGKGLEWVSGFSGSGGFTFYADSVRGRFTISRDSSKNTLFLQMSSLRAEDTAVYYCAIPARGYNYGSFQHWGQGTLVTVSS
VL: SYVLTQPPSVSVAPGQTARITCGGNNIGSKSVHWYQQKPGQAPVLVVYDDNDRPSGLPERFSGSNSGNTATLTISRVEAGDEADYYCQVWDSSSDHVVFGGGTKLTVLG

EC50 (read off the curve) [9]: ~0.03 µg/mL
EC50 (read off the curve) [10]: ~0.08 µg/mL
association response of the second antibody (PDLoneECDHisCtag [11]): 0 nm
EC50 (read off the curve) [12]: ~0.08 µg/mL
Kd (PDLoneECDHisCtag [13]): 3.8 nM
koff (PDLoneECDHisCtag [13]): 0.0045 s⁻¹
kon (PDLoneECDHisCtag [13]): 1.2e+06 M⁻¹ s⁻¹
B3: IgG1-511-LC33S-FEAR (antibody, V domains shown)
VH: QVQLVQSGSELKKPGASVMVSCKASGYTFTSYVMNWVRQAPGQGLEWMGWINSYTGNPTSAQGFTGRFVFSFDTSVNTAYLQISSLKAEDTAVYYCARGYCTSTSCYLDYWGQGTLVTVSS
VL: SYELTQPPSVSVSPGHTARITCSGDALPKKYASWFQQKSGQAPVLVIYEDSKRPSGIPERFSGSTSGTMATLTISGAQVEDETDYYCYSADTSGTHRVFGGGTKLTVLG

From US20200239579A1 (Genmab, published 2020)
